Where two headings read alike, the source gives them in different places.

Holding throughout (test): SPR; Biacore 3000; HopZ1a proteins, GST or BSA immobilised on CM5 chips by amine coupling; 500 µg/ml (Figure S1A: 250 µg/ml) tubulin injected; 25°C, HBS-EP running buffer (0.01 M HEPES pH 7.4, 0.15 M NaCl, 3 mM EDTA, 0.005% Surfactant P20)
(In general: Surface plasmon resonance follows binding to a sensor surface in real time, without labels.)

The target of assay [1] is GST-HopZ1a (Pseudomonas syringae pv. syringae A2) (UniProt Q6VE93).
Assay [2] has as its target HIS-HopZ1a (Pseudomonas syringae pv. syringae A2) (UniProt Q6VE93).
For assay [3], the target named is HIS-HopZ1a(C216A) (Pseudomonas syringae pv. syringae A2) (UniProt Q6VE93).
The target of assay [4] is HIS-HopZ1a(K289R) (Pseudomonas syringae pv. syringae A2) (UniProt Q6VE93).
For assay [5], the target named is HIS-HopZ1a (Pseudomonas syringae pv. syringae A2) (UniProt Q6VE93). The source holds these as a separate data set.

As to “bovine brain tubulin heterodimers (from UniProt Q6B856 1-445) (complex)”, the RU difference in assay [1] was found to be 36 RU. For the same substance, in assay [2], the RU difference amounted to 1050 RU, the RU difference (250 µg/ml tubulin) was found to be 630 RU, the RU difference (6973 RU HIS-HopZ1a immobilised) stood at 59 RU and the RU difference (13598 RU HIS-HopZ1a immobilised) was found to be 324 RU. Also, the RU difference (18289 RU HIS-HopZ1a immobilised) in assay [2] is 615 RU. In addition, in assay [3], the RU difference was found to be 1150 RU and the RU difference (250 µg/ml tubulin) was 463 RU. Also, the RU difference in assay [4] came to 186 RU. In assay [5], this substance showed an RU difference of 117 RU.

With soybean tubulin (complex), the RU difference in assay [1] worked out at 305 RU; in assay [2] it was 1230 RU.
